Results on 57 variants are retold here after the RNAGym collection of RNA variant scans (doi:10.7554/elife.80360).

B1: Hammerhead Ribozyme (parent)
chain: ACCGGAUGUGCUUUCCGGUCUGAUGAGUCCGUGAGGACGAAACAG

Variants of B1 are the subject of this series. The series is described as follows: self-cleavage, relative activity (ratio to wild type); higher = more cleavage; co-transcriptional.
For ACCGGAUGUGCUUUCCGAUCAGAUGAGUCCGUGAGGACGAAACAG [G18A U21A], the self-cleavage was determined as 0.401.
Take ACCGGAUGUGCUUUCCGAUCGGAUGAGUCCGUGAGGACGAAACAG [G18A U21G]: the self-cleavage stood at 0.404.
The same measure for ACCGGAUGUGCUUUCCGAUCCGAUGAGUCCGUGAGGACGAAACAG [G18A U21C]: 0.396.
For the variant ACCGGAUGUGCUUUCCGCGCUGAUGAGUCCGUGAGGACGAAACAG [G18C U19G], the self-cleavage stood at 0.224.
Regarding ACCGGAUGUGCUUUCCGCCCUGAUGAGUCCGUGAGGACGAAACAG [G18C U19C], the self-cleavage came to 0.375.
To ACCGGAUGUGCUUUCCGCACUGAUGAGUCCGUGAGGACGAAACAG [G18C U19A] belongs 0.349; to ACCGGAUGUGCUUUCCGCUCUGAUGAGUCCGUGAGGACGAUACAG [G18C A41U], 0.36.
Turning to ACCGGAUGUGCUUUCCGCUCUGAUGAGUCCGUGAGGACGACACAG [G18C A41C], the self-cleavage was determined as 0.303.
Take ACCGGAUGUGCUUUCCGCUCUGAUGAGUCCGUGAGGACGAGACAG [G18C A41G]: the self-cleavage worked out at 0.313.
Regarding ACCGGAUGUGCUUUCCGCUCAGAUGAGUCCGUGAGGACGAAACAG [G18C U21A], the self-cleavage was determined as 0.333.
To ACCGGAUGUGCUUUCCGCUCGGAUGAGUCCGUGAGGACGAAACAG [G18C U21G] belongs 0.285; to ACCGGAUGUGCUUUCCGCUCCGAUGAGUCCGUGAGGACGAAACAG [G18C U21C], 0.284; to ACCGGAUGUGCUUUCCGCUCUGAUGAGUCCGUGAGGACGAAGCAG [G18C A42G], 0.372.
For ACCGGAUGUGCUUUCCGCUCUGAUGAGUCCGUGAGGACGAACCAG [G18C A42C], the self-cleavage was found to be 0.328.
With ACCGGAUGUGCUUUCCGCUCUGAUGAGUCCGUGAGGACGAAUCAG [G18C A42U], the self-cleavage was 0.325.
For ACCGGAUGUGCUUUCCGCUCUGAUGAGUCCAUGAGGACGAAACAG [G18C G31A], the self-cleavage came out at 0.649.
The same measure for ACCGGAUGUGCUUUCCGCUCUGAUGAGUCCCUGAGGACGAAACAG [G18C G31C]: 0.548; for ACCGGAUGUGCUUUCCGCUCUGAUGAGUCCUUGAGGACGAAACAG [G18C G31U]: 0.673; for ACCGGAUGUGCUUUCCGAUCUGAUGAGUCCGUGAUGACGAAACAG [G18A G35U]: 0.594.
To ACCGGAUGUGCUUUCCGAUCUGAUGAGUCCGUGAAGACGAAACAG [G18A G35A] belongs 0.536.
To ACCGGAUGUGCUUUCCGAUCUGAUGAGUCCGUGACGACGAAACAG [G18A G35C] belongs 0.479; to ACCGGAUGUGCUUUCCGAUCUGAUGAGUCCUUGAGGACGAAACAG [G18A G31U], 0.938; to ACCGGAUGUGCUUUCCGAUCUGAUGAGUCCAUGAGGACGAAACAG [G18A G31A], 1.05.
For ACCGGAUGUGCUUUCCGAUCUGAUGAGUCCCUGAGGACGAAACAG [G18A G31C], the self-cleavage was determined as 0.74.
In the case of ACCGGAUGUGCUUUCCGCUCUGCUGAGUCCGUGAGGACGAAACAG [G18C A23C], the self-cleavage worked out at 0.298.
To ACCGGAUGUGCUUUCCGCUCUGGUGAGUCCGUGAGGACGAAACAG [G18C A23G] belongs 0.379; to ACCGGAUGUGCUUUCCGCUCUGUUGAGUCCGUGAGGACGAAACAG [G18C A23U], 0.32; to ACCGGAUGUGCUUUCCGCUCUGAUGAGUCCGUGAGGACGAAACAG [G18C], 0.62.
The same measure for ACCGGAUGUGCUUUCCGAUCUGAGGAGUCCGUGAGGACGAAACAG [G18A U24G]: 0.678; for ACCGGAUGUGCUUUCCGAUCUGAAGAGUCCGUGAGGACGAAACAG [G18A U24A]: 0.748; for ACCGGAUGUGCUUUCCGAUCUGACGAGUCCGUGAGGACGAAACAG [G18A U24C]: 0.757.
To ACCGGAUGUGCUUUCCGCUCUGAUGAGUCCGUGAGGACGAAACAC [G18C G45C] belongs 0.383; to ACCGGAUGUGCUUUCCGCUCUGAUGAGUCCGUGAGGACGAAACAA [G18C G45A], 0.393.
Regarding ACCGGAUGUGCUUUCCGCUCUGAUGAGUCCGUGAGGACGAAACAU [G18C G45U], the self-cleavage turned out to be 0.374.
The same measure for ACCGGAUGUGCUUUCCGAUCUGAUGAGUCCGUGAGGACGAAACAC [G18A G45C]: 0.446.
The same measure for ACCGGAUGUGCUUUCCGAUCUGAUGAGUCCGUGAGGACGAAACAA [G18A G45A]: 0.354; for ACCGGAUGUGCUUUCCGAUCUGAUGAGUCCGUGAGGACGAAACAU [G18A G45U]: 0.469.
To ACCGGAUGUGCUUUCCGCUCUGAUGAGUCCGUGAUGACGAAACAG [G18C G35U] belongs 0.399; to ACCGGAUGUGCUUUCCGCUCUGAUGAGUCCGUGACGACGAAACAG [G18C G35C], 0.35.
Turning to ACCGGAUGUGCUUUCCGCUCUGAUGAGUCCGUGAAGACGAAACAG [G18C G35A], the self-cleavage turned out to be 0.537.
Turning to ACCGGAUGUGCUUUCCGCUCUGAUGAGUCCGUGAGGAAGAAACAG [G18C C38A], the self-cleavage came out at 0.327.
The same measure for ACCGGAUGUGCUUUCCGCUCUGAUGAGUCCGUGAGGAGGAAACAG [G18C C38G]: 0.387; for ACCGGAUGUGCUUUCCGCUCUGAUGAGUCCGUGAGGAUGAAACAG [G18C C38U]: 0.453.
For the variant ACCGGAUGUGCUUUCCGCUCUGAUGAGUCCGUGUGGACGAAACAG [G18C A34U], the self-cleavage is 0.409.
The same measure for ACCGGAUGUGCUUUCCGCUCUGAUGAGUCCGUGCGGACGAAACAG [G18C A34C]: 0.36.
The same measure for ACCGGAUGUGCUUUCCGCUCUGAUGAGUCCGUGGGGACGAAACAG [G18C A34G]: 0.422; for ACCGGAUGUGCUUUCCGCUCUGAUAAGUCCGUGAGGACGAAACAG [G18C G25A]: 0.328.
The same measure for ACCGGAUGUGCUUUCCGCUCUGAUUAGUCCGUGAGGACGAAACAG [G18C G25U]: 0.284; for ACCGGAUGUGCUUUCCGCUCUGAUCAGUCCGUGAGGACGAAACAG [G18C G25C]: 0.347; for ACCGGAUGUGCUUUCCGAUCUGAUGAGCCCGUGAGGACGAAACAG [G18A U28C]: 0.388.
Consider ACCGGAUGUGCUUUCCGAUCUGAUGAGGCCGUGAGGACGAAACAG [G18A U28G], for which the self-cleavage came to 0.542.
The same measure for ACCGGAUGUGCUUUCCGAUCUGAUGAGACCGUGAGGACGAAACAG [G18A U28A]: 0.475.
To ACCGGAUGUGCUUUCCGAUCUGAUGAGUCCGUUAGGACGAAACAG [G18A G33U] belongs 0.726; to ACCGGAUGUGCUUUCCGAUCUGAUGAGUCCGUAAGGACGAAACAG [G18A G33A], 0.873; to ACCGGAUGUGCUUUCCGAUCUGAUGAGUCCGUCAGGACGAAACAG [G18A G33C], 0.635.
The same measure for ACCGGAUGUGCUUUCCGCUCUUAUGAGUCCGUGAGGACGAAACAG [G18C G22U]: 0.29.
ACCGGAUGUGCUUUCCGCUCUAAUGAGUCCGUGAGGACGAAACAG [G18C G22A]: the self-cleavage came to 0.342.
